# Measurements: patent EP4714978A1 (Neukio Biotherapeutics (Shangai ) Co., Ltd., dated 2026)
# T1: human DLL3 protein (human, UniProt Q9NYJ7 27-492, limits assumed)
# T1 construct: Soluble human DLL3 protein used in BLI; also called Delta-like protein 3
# T1 sequence (looked up): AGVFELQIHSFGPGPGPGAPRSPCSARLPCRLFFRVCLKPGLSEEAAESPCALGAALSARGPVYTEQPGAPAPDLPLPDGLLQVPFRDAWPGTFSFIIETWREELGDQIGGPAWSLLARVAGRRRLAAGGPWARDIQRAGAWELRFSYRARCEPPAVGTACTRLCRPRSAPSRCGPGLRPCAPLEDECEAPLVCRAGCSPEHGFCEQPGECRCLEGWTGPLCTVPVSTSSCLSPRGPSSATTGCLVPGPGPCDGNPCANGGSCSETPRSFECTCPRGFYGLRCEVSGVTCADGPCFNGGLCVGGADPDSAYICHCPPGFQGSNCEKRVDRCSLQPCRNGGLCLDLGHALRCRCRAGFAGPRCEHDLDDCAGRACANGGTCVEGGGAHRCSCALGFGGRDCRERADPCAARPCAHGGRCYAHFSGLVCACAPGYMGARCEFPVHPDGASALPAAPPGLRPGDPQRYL
# T2: DLL3 on the surface of DLL3-positive cell lines SHP77 and NCI-H82 (UniProt Q9NYJ7 27-618, limits assumed)
# T2 construct: whole, on cells; The cell line of each number is named under assay
# T2 sequence (looked up): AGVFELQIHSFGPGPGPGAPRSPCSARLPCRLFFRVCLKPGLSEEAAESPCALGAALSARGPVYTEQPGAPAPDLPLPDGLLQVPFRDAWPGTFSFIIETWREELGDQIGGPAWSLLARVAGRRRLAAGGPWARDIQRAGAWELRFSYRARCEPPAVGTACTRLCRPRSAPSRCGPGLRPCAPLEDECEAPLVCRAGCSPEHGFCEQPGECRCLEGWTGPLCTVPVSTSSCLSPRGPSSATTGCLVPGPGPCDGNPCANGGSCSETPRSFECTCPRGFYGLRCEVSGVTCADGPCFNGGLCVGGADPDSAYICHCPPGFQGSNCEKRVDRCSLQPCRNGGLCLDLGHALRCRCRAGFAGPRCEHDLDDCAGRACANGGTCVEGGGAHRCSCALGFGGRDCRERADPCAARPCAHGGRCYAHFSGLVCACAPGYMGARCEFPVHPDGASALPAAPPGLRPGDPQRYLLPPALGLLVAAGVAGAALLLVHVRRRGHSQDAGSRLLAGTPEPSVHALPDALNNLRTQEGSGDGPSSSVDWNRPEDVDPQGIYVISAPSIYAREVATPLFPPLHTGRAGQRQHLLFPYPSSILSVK
# B1: Ab.73 scFv-human IgG Fc (Fc fusion)
# chain: DVVMTQSPLSLPVTLGQPASISCRSSQSLGYSDGDTYLIWFLQRPGQSPRRLIYKVSNRDSGVPDRFSGSGSGTDFTLKISRVEAEDVGVYYCMQGTHWPYTFGQGTKLEIKGGGGSGGGGSGGGGSQVQVQESGPGLVKPSETLSLTCTVSTGSFSSHYWSWIRQPPGKSLEYIGYIYYTGTTNYNPSLKSRVTISVDTSKNQFSLNVNSVTAADTAVYYCAREGTFDIWGQGTMVTVSS
# notes: Tested as scFv-human IgG Fc; not shown: human IgG Fc
# B2: Ab.71 scFv-human IgG Fc (Fc fusion)
# chain: DIGMTQSPDSLAVSLGERATINCKSSQNVLPNSNKKHYLSWYQQKPGQPPKLLIYLASTRASGVPDRFSGSGSGTDFTLTISSLQAEDVAVYYCQQYYSSPPEWTFGQGTKVEIKGGGGSGGGGSGGGGSQVQLVESGGGVVQPGRSLRLSCVASGFTFSNCGMHWVRQAPGKGLEWVAIIWYDGNIKYYGDSVKGRFTISRDNSKNTLYLQMNSLRVEDTAVYYCGRHDYGGNSFDYWGQGTLVTVSS
# notes: as for B1
# B3: Ab.79 scFv-human IgG Fc (Fc fusion)
# chain: DVVMTQSPLSLPVTLGQPASISCRSSQSLVYNDGNTYLTWFQQWPGQSPRRLIYKVSNRDSGVPDRFSGSGSGTDFTLKISRVEAEDIGVYHCMQGTHWPYTFGQGTKLEIKGGGGSGGGGSGGGGSQVQVQESGPGLVKSSETLSLTCTVSGGSFRSYYWSWIRQPPGKGLDYIGYMYYSGTTNYNPSLTNRVSISVDTSKNQFSLKLNSVTAADTAVYYCAREGTFDIWGQGTVVTVSS
# notes: as for B1
# B4: Ab.76 scFv-human IgG Fc (Fc fusion)
# chain: EIVMTQSPATLSVSPGERATLSCRASQSVSSNLAWYRQKPGQAPRLFIYGAYTRATDIPARFSGSGSGTEFTLTISSLQSEDFAVYYCQQYNNWPFTFGPGTKVDIKGGGGSGGGGSGGGGSEVQMVESGGVLVQPGMSLRLSCAASGFTFDDYAMHWVRQPPGKGLEWVSVISWNSGSIGYADSVKGRFTISRDNAKNSLYLQMNSLRAEDTAFYYCAKDLEGGVMDFDYWGQGTLVTVSS
# notes: not shown: human IgG Fc
# B5: Ab.55 scFv-human IgG Fc (Fc fusion)
# chain: EVVMTQSPLSLPVTLGQPASVSCRSSQSLLYSDGNTYLIWFQQRPGQSPRRLLYKLSTRDSGVPDRFSGSGSGTDFTLKISRVEAEDVGIYYCMQVTHWPYTFGQGTKLEIKGGGGSGGGGSGGGGSQVQLRESGPGLVKPSETLSLTCTVSGDSLKNSYWGWIRQPPGKGLEWIGYIYYSGTSSYNPSLESRVTFSADTSKNQFSLKLSSVTAADTAVYYCSREGSFDVWGRGTLVTVSS
# notes: as for B1
# B6: AMG757 (anti-DLL3 scFv from Amgen's patent, positive control) scFv-human IgG Fc (Fc fusion)
# chain: EIVLTQSPGTLSLSPGERVTLSCRASQRVNNNYLAWYQQRPGQAPRLLIYGASSRATGIPDRFSGSGSGTDFTLTISRLEPEDFAVYYCQQYDRSPLTFGCGTKLEIKGGGGSGGGGSGGGGSQVQLQESGPGLVKPSETLSLTCTVSGGSISSYYWSWIRQPPGKCLEWIGYVYYSGTTNYNPSLKSRVTISVDTSKNQFSLKLSSVTAADTAVYYCASIAVTGFYFDYWGQGTLVTVSS
# notes: not shown: human IgG Fc
# B7: Ab.67 scFv-human IgG Fc (Fc fusion)
# chain: DVVVTQSPLSLPVTLGQPASISCRSSQSLVYSDGNTYLNWFQQRPGQSPRRLVYQVSNRDSGVPDRFSGSGSGTDFTLKISGMEAEDAGVYYCMQGTHWPHTFGQGTKLEIKGGGGSGGGGSGGGGSEVHLVESGGGLVQPGGSLKLSCAASGFIFSGSSMHWVRQASGKGLEWIGRIRNKANNYATSYGASVQGRFTMSRDDSKNTAYLQMNSLKAEDTAVYYCTYLSGEFWGQGTLVTVSS
# notes: as for B1
# B8: Ab.63 scFv-human IgG Fc (Fc fusion)
# chain: QIVLTQSPGTLSLSPGERATLSCRASQSVTRGYLAWYQQKPGQAPRLLFYGASNRATDIPDRFSGSGSGTDFTLIISRLEPEDFAVYYCQQYGISPLTFGGGTKVEIKGGGGSGGGGSGGGGSQVQLHESGPGLVKPSETLSLTCTVSGASISSYYWSWIRQPPGKGLEWIGYIYYSGTTNFNPSLKSRVTISVDTSKNQFSLRLSSVTTADTAVYYCANLALTGFHFDYWGQGTLVTVSS
# notes: as for B1
# Target: T1, human DLL3 protein
# Test: BLI, scFv-Fc against human DLL3 protein; koff below the instrument detection limit
row,koff,Binder
1,< 1e-06 s⁻¹,B1

# Target: T1, human DLL3 protein
# Test: BLI, scFv-Fc against human DLL3 protein
Kd,koff,kon,Binder
0.299 nM,0.000177 s⁻¹,591000 M⁻¹ s⁻¹,B2
0.487 nM,0.000186 s⁻¹,382000 M⁻¹ s⁻¹,B3
1.22 nM,0.000288 s⁻¹,236000 M⁻¹ s⁻¹,B4
0.197 nM,6.31e-05 s⁻¹,320000 M⁻¹ s⁻¹,B5
0.164 nM,3.03e-05 s⁻¹,185000 M⁻¹ s⁻¹,B6
0.34 nM,0.000182 s⁻¹,534000 M⁻¹ s⁻¹,B7
1.41 nM,0.000597 s⁻¹,424000 M⁻¹ s⁻¹,B8
< 0.005 nM,,193000 M⁻¹ s⁻¹,B1

# Target: T2, DLL3 on the surface of DLL3-positive …
# Test: flow cytometry on SHP77 cells
row,EC50,Binder
1,0.039 µg/mL,B2
2,0.073 µg/mL,B3
3,2.6 µg/mL,B4
4,0.11 µg/mL,B5
5,0.089 µg/mL,B6
6,0.14 µg/mL,B7
7,0.011 µg/mL,B8
8,0.077 µg/mL,B1

# Target: T2, DLL3 on the surface of DLL3-positive …
# Test: flow cytometry on NCI-H82 cells
row,EC50,Binder
1,0.027 µg/mL,B2
2,0.064 µg/mL,B3
3,0.38 µg/mL,B4
4,0.15 µg/mL,B5
5,0.082 µg/mL,B6
6,0.11 µg/mL,B7
7,0.012 µg/mL,B8
8,0.042 µg/mL,B1
